For assay [1], the target named is Human CD8+ T Cells. Put plainly: FACS binding to human CD8+ T cells; Donor KP63715. A general note: In flow cytometry, cells or beads pass a laser one at a time.
Assay [2] has as its target Human CD8+ T Cells. Put plainly: FACS binding to human CD8+ T cells; Donor KP63218.

Here are results for 1 molecule from patent publication US20240174754A1 (published 2024).

B1: PA015 (antibody, V domains shown)
VH: QVTLRESGPALVKPTQTLTLTCTVSGFSLSTFGMGVGWIRQPPGKALEWLAHIWWDDDKWYELALKSRLTISKDTSKNQVVLTITNMDPVDTATYYCARVIYYGSRSAYYSMDYWGQGTTVTVSS
VL: DVVMTQTPLSLSVTPGQPASISCKSSQSIVHSNAHTYLEWYLQKPGQSPQLLIYKVSNRFSGVPDRFSGSGSGTDFTLKISRVEAEDVGVYYCFQGSHVPVTFGQGTKLEIKR
A word on the EC50: it is the concentration at which the effect is half-maximal. Higher therefore signals a less potent agent. Regarding B1, the EC50 in assay [1] was 3.18 ng/mL; in assay [2], 10.8 ng/mL.
